Where two headings read alike, the source gives them in different places. Square brackets hold non-standard residues; d marks the D form. Ends that are not written are not given here. Ftp = ferrocenyl-triazole-Pro (made from azidoproline); Cit = NC(=O)NCCC[C@H](N)C(=O)O
Columns and labels:
HIV-1 YU-2 gp120 [1] = biological target: T1, HIV-1 YU-2 gp120 (HIV-1 (YU-2), UniProt P35961 32-498); experiment: ITC
HIV-1 YU-2 gp120 [2] = biological target: T1, HIV-1 YU-2 gp120; experiment: ELISA
HIV-1 YU-2 gp120 [3] = biological target: T1, HIV-1 YU-2 gp120; experiment: ELISA; remark: listed apart in the source

B1: UM15 (peptide)
chain: INNI[Ftp]W-NH2
dH (HIV-1 YU-2 gp120 [1]): -16.6 kcal/mol

B2: UM17 (peptide)
chain: NNI[Ftp]W-NH2
IC50 (HIV-1 YU-2 gp120 [2]): 600 ± 50 nM
dH (HIV-1 YU-2 gp120 [1]): -13.2 kcal/mol
IC50 (HIV-1 YU-2 gp120 [3]): 4000 ± 170 nM

B3: UM41 (peptide)
chain: NI[Ftp]WS-NH2
dH (HIV-1 YU-2 gp120 [1]): -6.1 kcal/mol

B4: UM24 (peptide)
chain: [Cit]NNI[Ftp]WS
dH (HIV-1 YU-2 gp120 [1]): -16.7 kcal/mol

Source: paper PMC3035117 (ChemMedChem, 2010)
